Laboratory results as given in article PMC12634842.

Target: Cys151 (UniProt position 151, SMGEKCVLHVM)
Assay: chemical modification (fluorescence detection)
Settings: 25 °C; 15 mM acetate/15 mM MES/30 mM Tris; Reduced (DTT-treated, desalted) free BTB domain, folded, no ligand

Kelch-like ECH-associated protein 1 (KEAP1), BTB domain (Homo sapiens; S172A)
pKa: 6.90 ± 0.05
